This passage reports Kd, koff and kon results from patent US20050272107A1 (MEDICAL RESEARCH COUNCIL, published 2005).

In general, Kd refers to the free concentration of one partner at which half of the binding sites on the other are occupied at equilibrium, for simple one-to-one binding. The low end stands for higher affinity, the high end for lower affinity. Broadly, the koff is a measure of how fast the partners let go of each other. A word on the kon: it is the second-order rate constant of association. Lower therefore signals slow association.

Experiment [1] has as its target RAS antigen of the BIAcore measurements. The experiment is described as follows: SPR, BIAcore 2000; Kd = koff/kon.
Experiment [2] has the same target. The experiment is described as follows: SPR, BIAcore 2000. (Surface plasmon resonance follows binding to a sensor surface in real time, without labels.)

B1: anti-RAS scFv33 (scFv)
chain: QVQLVEAGGGLVQPGGSLRLSCAASGFSFSTFSMNWVRQAPGKGLEWVSYISSSGRTIYYADSVKGRFTISRDNAKNSLYLQMNSLRDEDTAVYYCARGRFFDYWGQGTLVTVSSGGGGSGGGGSGGGGSDIVMTQSPSFLSASVGDRVTITCRASQSISRYLNWYQQKPGKAPKLLIYAASSLQSGVPSRFSGSGSGTDFTLTISSLQPEDFAIYYCQQSYSTLLTFGGGTKLEIKR
In turn, B1 showed a dissociation constant Kd in experiment [1] of 9.97 nM. In experiment [2], this molecule had a koff of 0.00113 s⁻¹ and a kon of 176000 M⁻¹ s⁻¹.
